Reference: US20250262210A1 (TRUSTEES OF COLUMBIA UNIVERSITY IN THE CITY OF NEW YORK, published 2025)

Experiments:
[1] = target: T1, STK11IP (human, UniProt Q8N1F8 1-1088); experiment: IP/MS, LZTR1 wild type-FLAG, U87
T1 sequence (looked up): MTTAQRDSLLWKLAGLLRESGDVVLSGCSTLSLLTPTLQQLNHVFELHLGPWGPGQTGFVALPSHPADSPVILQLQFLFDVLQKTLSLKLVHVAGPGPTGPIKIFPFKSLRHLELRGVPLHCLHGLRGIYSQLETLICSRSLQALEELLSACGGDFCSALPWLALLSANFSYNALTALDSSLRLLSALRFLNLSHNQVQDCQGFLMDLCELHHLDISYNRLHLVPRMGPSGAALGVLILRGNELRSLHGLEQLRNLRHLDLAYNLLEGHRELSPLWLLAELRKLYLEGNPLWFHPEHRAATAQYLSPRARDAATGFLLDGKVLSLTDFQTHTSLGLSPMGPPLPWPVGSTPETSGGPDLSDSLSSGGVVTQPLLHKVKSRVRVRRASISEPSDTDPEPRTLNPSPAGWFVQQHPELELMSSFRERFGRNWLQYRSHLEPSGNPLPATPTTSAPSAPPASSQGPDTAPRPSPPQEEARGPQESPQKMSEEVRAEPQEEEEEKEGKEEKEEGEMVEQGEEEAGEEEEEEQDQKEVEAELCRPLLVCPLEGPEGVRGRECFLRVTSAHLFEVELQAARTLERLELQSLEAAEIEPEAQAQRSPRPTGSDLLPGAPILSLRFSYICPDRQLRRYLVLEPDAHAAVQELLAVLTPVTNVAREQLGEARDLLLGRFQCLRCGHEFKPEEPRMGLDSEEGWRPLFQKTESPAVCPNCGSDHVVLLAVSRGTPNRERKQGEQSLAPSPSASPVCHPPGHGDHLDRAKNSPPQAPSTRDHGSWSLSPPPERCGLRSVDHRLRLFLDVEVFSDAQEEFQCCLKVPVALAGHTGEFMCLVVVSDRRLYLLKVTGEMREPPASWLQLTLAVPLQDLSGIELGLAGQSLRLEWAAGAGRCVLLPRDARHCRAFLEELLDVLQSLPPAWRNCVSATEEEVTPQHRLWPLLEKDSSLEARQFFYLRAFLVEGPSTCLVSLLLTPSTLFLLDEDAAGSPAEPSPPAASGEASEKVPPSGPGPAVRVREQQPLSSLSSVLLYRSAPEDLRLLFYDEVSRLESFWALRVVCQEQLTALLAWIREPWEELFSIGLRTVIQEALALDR
How it was run: (§1)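 Read-out: spectral counts from LC-MS/MS (Orbitrap Fusion) after MaxQuant identification. Variable modifications were Met oxidation, protein N-terminal acetylation and N/Q deamidation.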

[2] = target: T2, MED24 (human, UniProt O75448 1-989, limits assumed); experiment: IP/MS, LZTR1 wild type-FLAG, U87
T2 sequence (looked up): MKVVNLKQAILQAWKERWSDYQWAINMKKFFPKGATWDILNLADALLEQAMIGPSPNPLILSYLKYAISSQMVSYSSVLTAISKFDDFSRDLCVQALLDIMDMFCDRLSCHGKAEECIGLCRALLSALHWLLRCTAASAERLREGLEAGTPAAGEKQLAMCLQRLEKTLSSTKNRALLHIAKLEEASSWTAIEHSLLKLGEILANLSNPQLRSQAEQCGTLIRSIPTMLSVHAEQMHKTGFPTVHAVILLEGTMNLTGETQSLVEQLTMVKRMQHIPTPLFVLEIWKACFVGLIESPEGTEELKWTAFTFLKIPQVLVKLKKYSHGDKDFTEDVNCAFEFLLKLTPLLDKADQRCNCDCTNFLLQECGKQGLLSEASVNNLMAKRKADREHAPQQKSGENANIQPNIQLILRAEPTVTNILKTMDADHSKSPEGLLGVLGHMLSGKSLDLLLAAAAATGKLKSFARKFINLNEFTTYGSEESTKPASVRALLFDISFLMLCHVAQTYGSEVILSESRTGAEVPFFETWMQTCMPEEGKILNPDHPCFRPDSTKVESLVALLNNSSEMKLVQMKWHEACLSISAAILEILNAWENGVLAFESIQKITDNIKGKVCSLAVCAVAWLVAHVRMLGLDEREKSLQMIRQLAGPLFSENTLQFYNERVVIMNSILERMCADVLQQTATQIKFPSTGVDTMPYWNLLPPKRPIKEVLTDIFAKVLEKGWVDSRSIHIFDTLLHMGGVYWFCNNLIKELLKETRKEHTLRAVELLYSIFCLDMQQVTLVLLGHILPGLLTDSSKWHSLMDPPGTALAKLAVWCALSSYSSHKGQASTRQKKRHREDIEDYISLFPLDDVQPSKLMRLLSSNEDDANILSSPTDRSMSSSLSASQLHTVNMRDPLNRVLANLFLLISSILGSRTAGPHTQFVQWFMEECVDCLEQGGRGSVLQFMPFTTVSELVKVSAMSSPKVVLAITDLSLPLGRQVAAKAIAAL
How it was run: as §1

B1: LZTR1-FLAG (other, human, UniProt Q8N653 1-840, looked up)
chain: MAGPGSTGGQIGAAALAGGARSKVAPSVDFDHSCSDSVEYLTLNFGPFETVHRWRRLPPCDEFVGARRSKHTVVAYKDAIYVFGGDNGKTMLNDLLRFDVKDCSWCRAFTTGTPPAPRYHHSAVVYGSSMFVFGGYTGDIYSNSNLKNKNDLFEYKFATGQWTEWKIEGRLPVARSAHGATVYSDKLWIFAGYDGNARLNDMWTIGLQDRELTCWEEVAQSGEIPPSCCNFPVAVCRDKMFVFSGQSGAKITNNLFQFEFKDKTWTRIPTEHLLRGSPPPPQRRYGHTMVAFDRHLYVFGGAADNTLPNELHCYDVDFQTWEVVQPSSDSEVGGAEVPERACASEEVPTLTYEERVGFKKSRDVFGLDFGTTSAKQPTQPASELPSGRLFHAAAVISDAMYIFGGTVDNNIRSGEMYRFQFSCYPKCTLHEDYGRLWESRQFCDVEFVLGEKEECVQGHVAIVTARSRWLRRKITQARERLAQKLEQEAAPVPREAPGVAAGGARPPLLHVAIREAEARPFEVLMQFLYTDKIKYPRKGHVEDVLLIMDVYKLALSFQLCRLEQLCRQYIEASVDLQNVLVVCESAARLQLSQLKEHCLNFVVKESHFNQVIMMKEFERLSSPLIVEIVRRKQQPPPRTPLDQPVDIGTSLIQDMKAYLEGAGAEFCDITLLLDGHPRPAHKAILAARSSYFEAMFRSFMPEDGQVNISIGEMVPSRQAFESMLRYIYYGEVNMPPEDSLYLFAAPYYYGFYNNRLQAYCKQNLEMNVTVQNVLQILEAADKTQALDMKRHCLHIIVHQFTKVSKLPTLRSLSQQLLLDIIDSLASHISDKQCAELGADI
notes: Expressed in HEK 293T, HeLa or U87 cells; used as cell lysate; also called LZTR1 wild type-FLAG; LZTR1 WT; not shown: FLAG tag at the C-terminus
- binding result [1]: binds
- binding result [2]: binds
